T1: Rvs167 SH3 (RV167_YEAST), P39743
T1 chain: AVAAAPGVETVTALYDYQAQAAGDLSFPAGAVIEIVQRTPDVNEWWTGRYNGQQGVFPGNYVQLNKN

T2: Boi1 SH3 (BOI1_YEAST), P38041
T2 chain: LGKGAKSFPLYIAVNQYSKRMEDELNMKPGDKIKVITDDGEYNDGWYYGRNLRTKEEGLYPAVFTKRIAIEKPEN

T3: Yhr016c SH3 (YSC84_YEAST), P32793
T3 chain: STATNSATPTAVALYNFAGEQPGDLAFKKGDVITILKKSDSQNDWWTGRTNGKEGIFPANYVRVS

T4: Myo5 SH3 (MYO5_YEAST), Q04439
T4 chain: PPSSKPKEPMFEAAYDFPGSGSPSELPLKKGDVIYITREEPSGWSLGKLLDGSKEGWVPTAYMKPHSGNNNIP

T5: Boi2 SH3 (BOI2_YEAST), P39969
T5 chain: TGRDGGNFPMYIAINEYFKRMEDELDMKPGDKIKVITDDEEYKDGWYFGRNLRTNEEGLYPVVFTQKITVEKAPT

T6: Yfr024 SH3 (LSB3_YEAST), P43603
T6 chain: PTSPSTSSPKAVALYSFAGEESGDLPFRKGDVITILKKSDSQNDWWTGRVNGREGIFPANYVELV

B1: YKL054C 145-158 (peptide)
chain: LDKGKHVPSKPVSN
B2: YKR027W 747-760 (peptide)
chain: LAYERPLPDLPSTI
B3: YJL095W 802-815 (peptide)
chain: LAPKREAPKPPANT
B4: YCL040W 56-69 (peptide)
chain: LASDKGLPMIPAFV
B5: YLR143W 384-397 (peptide)
chain: LDLSKYGPLPPSRA
B6: YAL048C 610-623 (peptide)
chain: LDPGKNTPGLPEET
B7: YLR235C 75-88 (peptide)
chain: LAGIRLVPVLPILL

Target: T1, Rvs167 SH3 (RV167_YEAST), P39743
Assay: SPOT array

normalised SPOT signal, Boehringer light units (BLU); mean over the file's lines of this peptide | Binder
60.9 | B1
3530 | B2
69.8 | B3
51.5 | B4
207 | B5
33.4 | B6
12800 | B7

Target: T2, Boi1 SH3 (BOI1_YEAST), P38041
Assay: SPOT array

normalised SPOT signal, Boehringer light units (BLU); mean over the file's lines of this peptide | Binder
364 | B1
41.8 | B2
179 | B3
94.4 | B4
1630 | B5
37.7 | B6
63.1 | B7

target: Sho1 SH3 (SHO1_YEAST), P40073; assay: SPOT array
Sequence (P40073 295-366): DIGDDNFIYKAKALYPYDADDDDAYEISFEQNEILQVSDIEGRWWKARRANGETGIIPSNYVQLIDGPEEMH

normalised SPOT signal, Boehringer light units (BLU); mean over the file's lines of this peptide | Binder
76.4 | B1
64100 | B2
71.2 | B3
15200 | B4
78.9 | B5
-0 | B6
22.2 | B7

Target: T3, Yhr016c SH3 (YSC84_YEAST), P32793
Assay: SPOT array

normalised SPOT signal, Boehringer light units (BLU); mean over the file's lines of this peptide | Binder
4.8 | B1
8470 | B2
29.7 | B3
62.8 | B4
256 | B5
15.3 | B6
493 | B7

Target: T4, Myo5 SH3 (MYO5_YEAST), Q04439
Assay: SPOT array

normalised SPOT signal, Boehringer light units (BLU); mean over the file's lines of this peptide | Binder
201 | B1
132 | B2
116000 | B3
79.9 | B4
154 | B5
156 | B6
152 | B7

Target: T5, Boi2 SH3 (BOI2_YEAST), P39969
Assay: SPOT array

normalised SPOT signal, Boehringer light units (BLU); mean over the file's lines of this peptide | Binder
12.7 | B1
14.3 | B2
28.5 | B3
134 | B4
20.4 | B5
126 | B6
22.4 | B7

Target: T6, Yfr024 SH3 (LSB3_YEAST), P43603
Assay: SPOT array

normalised SPOT signal, Boehringer light units (BLU); mean over the file's lines of this peptide | Binder
18.1 | B1
4460 | B2
47.5 | B3
48.3 | B4
359 | B5
36.6 | B6
2480 | B7
